Assay results as given in US11254722B2, “Recombinant proteins and uses thereof” (ACADEMIA SINICA, priority 2017, dated 2022).

How the values were obtained:
[1] = biological target: T1, EGF (Homo sapiens, UniProt P01133); test: Binding to EGF
T1 construct: purchased R&D Sciences or SinoBiologicals
Text: Table 3 lists the correlation between the IGFBP3 growth factor binding as determined by the inhibition of the proliferation by 56662. The observed inhibitory effects may derive from the growth factor sequestration, and/or IGFBP3 independent effects.

[2] = biological target: T2, nrgECD (amino acids Ser2-Lys246 of neuregulin beta 1) (Homo sapiens, UniProt Q02297); test: Biacore binding to nrgECD; settings: immobilized nrgECD
T2 construct: Ser2-Lys246 of neuregulin beta 1; purchased R&D Sciences or SinoBiologicals
T2 sequence (Q02297 2-246 isoform Q02297-6): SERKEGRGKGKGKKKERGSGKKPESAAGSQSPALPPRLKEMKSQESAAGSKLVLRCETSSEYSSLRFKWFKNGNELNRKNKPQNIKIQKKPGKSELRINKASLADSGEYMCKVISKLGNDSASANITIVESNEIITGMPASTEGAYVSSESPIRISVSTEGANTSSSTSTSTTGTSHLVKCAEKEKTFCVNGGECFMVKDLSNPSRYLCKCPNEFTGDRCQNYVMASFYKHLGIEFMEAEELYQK
Procedure: Biacore binding was performed at David Myszka's laboratory at the University of Utah or at the Genomic Research Center at Academia Sinica. Surfaces of binding protein chimera were made via chemical immobilization on a CM4 chip using standard amine coupling chemistry. […] Excess surface carboxyl activated sites on all four flow cells was blocked using the doubly positively charged species ethylenediamine. Binding experiments (but not immobilizations) in HBS-P (10 mM HEPES pH 7.4, 150 mM NaCl, 0.05% P20), The HBS-P was supplemented with BSA at 0.2 mg/mL, or HBS-P was supplemented with 500 mM NaCl (650 mM NaCl, final concentration). Analytes were also reconstituted in the corresponding buffer. All experiments were performed at 25° C. 1/150 dilutions of phosphoric acid were used to regenerate IGFBP3-Fc surfaces and a sequence of 3 M MgCl2 followed by 5 M GuCl was used to regenerate surfaces immobilized with growth factor. Dissociation constants reported below used immobilized binding protein unless noted. Differences between binding constants may be expected between growth factor immobilization and chimera immobilization.
In this example, erbB4 domain 1 was attached to the N-terminus of the recombinant IGFBP3-Fc or the recombinant IGFBP3-v1v2-Fc.

[3] = tested on: hep3B cells; test: hep3B proliferation assay; assay type: cell-based, human; settings: hep3B
Procedure, shortened: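 Cells seeded at 1,000 to 6,000 per well in DMEM/F12 with 0.2% BSA and 10 ug/ml transferrin. Inhibitors added 16-20 h after plating; IGF-1 or other growth factors at plating or 16-20 h later. After 3 to 4 days, growth read by Alamar blue fluorescence at 544/590 nm after 4 to 6 h.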

T1 sequence (P01133 971-1023 limits assumed): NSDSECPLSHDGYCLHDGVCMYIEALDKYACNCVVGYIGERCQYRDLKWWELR

With “56662: IGFBP3-Fc, SEQ ID NO: 7; unmodified IGFBP3 fused with the IgG Fc portion [compound 56662]” the “binding to EGF” value [1] was “did not bind”, the Kd [2] was 0.0053 µM and the “In vitro inhibition of proliferation, HGF” value ([3]; HGF-induced) was “yes (hep3B, HUVEC)”. The EC50 ([3]; FIG. 11C, read-out: ECK for FBS-induced proliferation) was 0.201 µM.
